Test results as given in US10174106B2, “Anti-neurotensin long fragment antibodies and uses thereof” (INSERM (INSTITUT NATIONAL DE LA SANTÉ ET DE LA RECHERCHE …, priority 2014, dated 2019).

What was measured:
R-SI NTSR1 tumors [1] = assay: Cisplatin test, R-SI NTSR1 xenograft; type: in vivo, NMRI nu/nu mice; conditions: cisplatin 1 mg/kg day 1,3,5,7,15,17,19
Experimental: (§1) Cisplatin test, 1×10^6 LMN-R cells and 1×10^6 R-SI NTSR1 were subcutaneously inoculated in NMRI nu/nu mice, LMN-R in the left flank and R-SI NTSR1 in the right flank. When tumors generated by LMN-R reached an average volume of 95 mm^3, mice were randomized in 5 groups of 8 to 10 mice. Group 1 was administered with PBS, group 2 with antibody FLp26-8.2 (i.p. every other day, 15 mg/kg) for total of 13 times and group 3 with mouse IgG (i.p. every other day, 15 mg/kg). Group 4 was administered with PBS and cisplatin (1 mg/kg at day 1,3 5 7, 15, 17, and 19) and groups 5 with antibody FLp26-8.2 (i.p. every other day, 15 mg/kg) and cisplatin (1 mg/kg at day 1,3 5 7, 15, 17, and 19). The volume of tumor was measured every other day.

LNM-R tumors [2] = assay: Cisplatin test, LNM-R xenograft; type: in vivo, NMRI nu/nu mice
Experimental: as §1

MDA-MB231 tumors = assay: Tumor xenograft, MDA-MB 231 breast cancer cells, left flank; type: in vivo, NMRI nu/nu mice; conditions: 15 mg/kg i.p. every other day
Experimental: (§2) 3×10^6 MDA-MB 231 cells and 3×10^6 MDA si2 were subcutaneously inoculated in 100 μl of matrigel the left flank and the right flank of the NMRI nu/nu mice, respectively. When tumors generated by MDA reached an average volume of 50 mm^3, mice were randomized in 2 groups, then administered antibody FLp26-8.2 (i.p. every other day, 15 mg/kg) for total 12 times. PBS was used as the vehicle control.

[3] = system: NTS-h cells (MCF-7 overexpressing NTS); assay: Type I collagen invasion assay, MCF-7 cells overexpressing NTS (NTS-h); type: cell-based; conditions: NTS-overexpressing clone NTS-h; EGF 100 ng/mL; 7 μg antibody; 48 h
Experimental: The mouse #4 was selected. 5 clones were obtained. Clones 1-6, 7-12, 8-2, 13-1, and 16-12 were tested. […] The experiments were repeated twice.
(§3) The cell culture insert (8 μm, Beckton Dickinson®) was coated with type I collagen (100 μl/well, 4×10^2 μg/ml, Sigma®) at 37° C. 24 h before the assay. 1 million MCF, NTS-h, Hep 3B, HepR1a, and HepR2b cells were seeded in the insert with 250 μl of serum free medium in presence or absence of 7 μg antibodies FLp26-8.2. Outside the insert, 750 μl medium with 10% FCS was added in the well as chemoattractant. After 48 h of incubation, the non-invading cells and collagen are removed from the upper surface of the membrane by scrubbing with a cotton swab. Invading cells (those adhering to the bottom surface of the membrane) were fixed and stained with the Kwif diff stain kit (Thermo®) and the number of stained cells were counted with an inverted microscope at 200× magnification.

CHO-NTSR1 cells = assay: Cell proliferation of CHO-NTSR1 cells treated with NTS or LNM-R conditioned media; type: cell-based; conditions: 2.8 μg antibody, 60% without antibody
Experimental: Cell Proliferation 20 000 CHO-NTSR1 cells were seeded in 48 well dishes, in 200 ul media 10% with FCS. […] Cells were treated for 40 h in 200 μl media with 2.5% FCS. Cellular proliferation was evaluated by counting using Beckman Coulter's cell counting.

R-SI NTSR1 tumors [4] = assay: Tumor xenograft, R-SI NTSR1 cells (LNM-R with NTSR1 sh-RNA), right flank; type: in vivo, NMRI nu/nu mice; conditions: 15 mg/kg i.p. every other day; vs PBS; same mice
Experimental: (§4) 1×10^6 LMN-R cells and 1×10^6 R-SI NTSR1 were subcutaneously inoculated in NMRI nu/nu mice, LMN-R in the left flank and R-SI NTSR1 in the right flank. When tumors generated by LMN-R reached an average volume of 40 mm^3, mice were randomized in 2 groups, then administered antibody FLp26-8.2 (i.p. every other day, 15 mg/kg) for total 8 times. PBS was used as the vehicle control. The volume of tumor was measured daily.

MDA Si2 tumors = assay: Tumor xenograft, MDA Si2 cells (sh NTSR1), right flank; type: in vivo, NMRI nu/nu mice; conditions: 15 mg/kg i.p. every other day, vs PBS
Experimental: as §2

Hep-R1a cells = assay: Collagen invasion assay, Hep-R1a cells (Hep3B transfected with NTSR1); type: cell-based; conditions: expressing NTS and NTSR1, exposed to antibody
Experimental: as §3

LNM-R tumors [5] = assay: Tumor xenograft, LNM-R lung cancer cells (NTS and NTSR1 expressing), left flank; type: in vivo, NMRI nu/nu mice; conditions: 15 mg/kg i.p. every other day
Experimental: as §4

MCF-7 cells = assay: Type I collagen invasion assay, MCF-7 cells; type: cell-based; conditions: parental MCF-7; EGF 100 ng/mL; 7 μg antibody; 48 h
Experimental: as §3

Hep-R1b cells = assay: Collagen invasion assay, Hep-R1b cells (Hep3B transfected with NTSR1); type: cell-based; conditions: expressing NTS and NTSR1, exposed to antibody

## N.N.[Cl][Pt][Cl] [cisplatin, reference compound]
R-SI NTSR1 tumors [1]
  tumor size: decreased
LNM-R tumors [2]; cisplatin 1 mg/kg day 1,3,5,7,15,17,19, IgG 15 mg/kg i.p. every other day, compared to PBS
  tumor growth rates: not altered

B1: FLp26-8.2: NTS monoclonal antibody directed against NTS long fragment; VH SEQ ID NO:1, VL SEQ ID NO:5 (antibody, V domains shown)
VH: QIQLVQSGPELKKPGETVKISCKASGYTFTNYGMNWVKQAPGKGLKWMGWITTNTGEPTYAEEFKGRFAFSLETSASTAYLQINNLKNEDTATYFCARRAFAMDYWGQGTSVTVSS
VL: DIVMTQAAPSVPVTPGESVSISCRSSKSLLHSNGNTYLYWFLQRPGQSPQLLIYRMSNLASGVPDRFSGSGSGTAFTLRISRVEAEDVGVYYCMQHLEYPYTFGGGTKLEIK
modifications: Synthetic VH Sequence; Synthetic VL sequence
MDA-MB231 tumors; 24 days, compared to PBS
  tumor growth: strong reduction
MDA-MB231 tumors; PBS 4.4±0.33
  growth rate from D1: 2.1±0.18 fold
MDA-MB231 tumors; control 11.63±1
  doubling time after 24 days of treatment: 55.5 ± 32 days
[3]
  induction of invasiveness induced or not by EGF: inhibited
CHO-NTSR1 cells; CM (LNM-R conditioned media) treated cells
  cellular growth inhibition with antibody added: 15%
CHO-NTSR1 cells; NTS treated cells (10^-7 M)
  cellular growth inhibition with antibody added: 48%
R-SI NTSR1 tumors [4]
  growth rate: not different
  size of the tumor: not different
MDA Si2 tumors
  doubling time: no difference
  growth rate: no difference
  tumor size: no difference
LNM-R tumors [2]; FLp26-8.2 15 mg/kg i.p. every other day, with or without cisplatin 1 mg/kg
  tumor size: smaller
Hep-R1a cells
  invasive rate of the cells: more drastic
LNM-R tumors [5]; 8 times, vs PBS
  tumor size as compared to controls: 2.6 times smaller
LNM-R tumors [5]; PBS 24.68±4.05
  growth from D1: 5.92±0.99 fold
LNM-R tumors [5]; PBS control 3.43±0.34
  doubling time after 16 days of treatment: 5.96 ± 0.55 days
MCF-7 cells
  induction of invasiveness induced or not by EGF: only in the NTS-overexpressing clones
Hep-R1b cells
  invasive rate of the cells: reduced
